Patent US20050221433A1 (Regeneron, published 2005)

T1: recombinant human IL-18 (human, UniProt Q14116 37-193)
T1 sequence (looked up): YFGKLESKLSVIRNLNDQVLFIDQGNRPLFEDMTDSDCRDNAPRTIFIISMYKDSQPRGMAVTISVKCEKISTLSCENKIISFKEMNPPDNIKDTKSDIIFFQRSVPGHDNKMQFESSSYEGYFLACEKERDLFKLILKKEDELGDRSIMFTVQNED

B1: hIL18BPa (1-192) (C49S, C129S).His (receptor)
chain: TPVSQTTTAATASVRSTKDPSPSQPPVFPAAKQCPALEVTWPEVEVPLNGTLSLSCVACSRFPNFSILYWLGNGSFIEHLPGRLWEGSTSRERGSTGTQLSKALVLEQLTPALHSTNFSCVLVDPEQVVQRHVVLAQLWAGLRATLPPTQEALPSSHSSPQQQGTGHHHHHHHH
B2: hIL18BPa (1-181) (C49S, C129S).His (receptor)
chain: TPVSQTTTAATASVRSTKDPSPSQPPVFPAAKQCPALEVTWPEVEVPLNGTLSLSCVACSRFPNFSILYWLGNGSFIEHLPGRLWEGSTSRERGSTGTQLSKALVLEQLTPALHSTNFSCVLVDPEQVVQRHVVLAQLWAGLRATLPPTQEALTGHHHHHHHH
B3: hIL18BPa (58-192) (C129S).His (receptor)
chain: AAKQCPALEVTWPEVEVPLNGTLSLSCVACSRFPNFSILYWLGNGSFIEHLPGRLWEGSTSRERGSTGTQLSKALVLEQLTPALHSTNFSCVLVDPEQVVQRHVVLAQLWAGLRATLPPTQEALPSSHSSPQQQGHHHHHHHH
B4: hIL18BPa (72-192).TG.hFc (Fc fusion)
chain: VEVPLNGTLSLSCVACSRFPNFSILYWLGNGSFIEHLPGRLWEGSTSRERGSTGTQLCKALVLEQLTPALHSTNFSCVLVDPEQVVQRHVVLAQLWAGLRATLPPTQEALPSSHSSPQQQGTG
notes: not shown: hFc (human Fc)

How the values were obtained:
[1] = molecular target: T1, recombinant human IL-18; assay: cell-based or functional assay
[2] = molecular target: T1, recombinant human IL-18; assay: printed in the IC50 (M) column of Table 2 (HEK293/NFkB-luciferase hIL-18 inhibition bioassay, CHO transient supernatant)
Description: hIL-18 Inhibition. The HEK293/NFkB-luciferase bioassay is used to determine the ability of the IL-18-specific polypeptides of the invention to block the activity of human IL-18 (hIL-18). Human embryonic kidney 293, HEK293, cells, were transfected with an NFκB-luciferase reporter plasmid. By placing an NFκB promoter element upstream of the luciferase gene one can monitor NFκB activity in cells. Because IL-18 signaling is mediated by NFκB, when cells containing the 293/NFκB luciferase construct and the IL-18 receptors are stimulated with hIL-18, the luciferase gene is expressed and luciferase activity can be detected in cell lysates. A stable, transfected, cell line, HEK293/D9, was selected for good response to IL-1 as detected by luciferase activity. This line was transfected with the human IL-18Rα (IL-IRrp) and IL-18Rβ (IL1RAcPL) receptors and stable cell lines that responded to IL-18 with a strong luciferase signal were isolated. These cells are called hIL-18-NFκB-luciferase cells.
For the assay, hIL-18-NFκB-Luciferase cells were suspended at 1.25×10⁵ cells per ml in medium and 0.08 ml of cells plated (10,000 cells per well) into the wells of a 96 well tissue culture plate. […] Plates were incubated at room temperature for ˜10 minutes and then read on a Victor multilabel counter (Luminescence 1 sec/well).

Row | Binder | IC50 (M), HEK293/NFkB-luciferase bioassay [1] [M] | binding result [2]
1 | B1 | 8.59e-11 | –
2 | B2 | 1.23e-10 | –
3 | B3 | 3.9e-11 | –
4 | B4 | – | no binding
